Source: US20200113997A1 (published 2020)
Substitutions are numbered along the chain they refer to.

B1: DH270.3 (antibody, V domains shown)
VH: QVQLVQSGAEMKNPGASVKVSCAASGYTFTDFYIHWVRLAPGQGLEWMGWMNPKTGRTNNAQNFQGRVIMTRDTSIGTAYMELRRLTSDDTAVYYCVTGGWISPYYDSSYYPNFDHWGQGTLVTVSS
VL: QSALTQPASVSGSPGQSITISCTGTSYDVGKFDLVSWYQQHPGKAPKYMIYEVNKWPSGVSHRFSGSKSGNTASLTISGLQAEDEADYYCCSFGGSATVVCGGGTKVTVL
B2: DH270.4 (antibody, V domains shown)
VH: B1 VH with Q1E, T28G, Q43H, E46Q, N63D, M70L, V123I
VL: B1 VL with G30A, Y38F
B3: DH270.5 (antibody, V domains shown)
VH: B1 VH with M11V, A24P, M48L, N60Q, A61G, R85S, G100A, P104D
VL: B1 VL with Q1L, S2P, A3V, S26I, Q40H, M49L, N54K, A82V, T98A
B4: DH270.2 (antibody, V domains shown)
VH: QVQLVQSGAEMKKPGASVRVSCKASGYTFTDYYIHWVRQAPGQGPEWMGWINPSTGRTNSPQKFQGRVIMTRDTSISTAYMDLNRLTSDDTAMYYCTTGGWIGLYSDTSGYPNFDYWGQGTLVTVSS
VL: QSALTQPASVSGSPGQSITISCTGTNYDVGSYNLVSWYQQHPGKVPKYIIYEVNKRPSGVSNRFSGSKSGNTASLTISGLQAEDEADYYCCSYAGSSIIFFGGGTKLTVI

Molecular target: T1, Man9-V3 glycopeptide (cyclic)
T1 peptide: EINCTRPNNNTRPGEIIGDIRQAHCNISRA
Assay: BLI

Binder	Kd
B1	195 nM
B2	346 nM
B3	281 nM
B4	4770 nM
